B1: library; numbered along this chain (parent)
chain: MAAAGGARLLRAASAVLGGPAGRWLHHAGSRAGSSGLLRNRGPGGSAEASRSLSVSARARSSSEDKITVHFINRDGETLTTKGKVGDSLLDVVVENNLDIDGFGACEGTLACSTCHLIFEDHIYEKLDAITDEENDMLDLAYGLTDRSRLGCQICLTKSMDNMTVRVPETVADARQSIDVGKTS

The variants in the series derive from B1. The series can be described thus: scaled log2 fold change in cell abundance, elesclomol vs control (0 = silent mean, 1 = nonsense mean) (scaled log2 ratio); higher = higher viability under elesclomol (loss of FDX1 cuproptosis function). The following applies: glucose 10 mM. The protocol:
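Deep mutational scan of full-length human FDX1: a pooled saturation-mutagenesis ORF library (every residue 2-184 mutated to all 19 amino acids plus stop, and silent codons where available) was expressed by lentivirus in FDX1-knockout ABC1 (14 days) or HEK293T (11 days) cells grown with elesclomol (ES) or DMSO control. Variant abundance came from ORF sequencing. The log2 fold change (ES vs control, mean of duplicates) was centred on the silent-variant mean (0) and scaled to the nonsense-variant mean (1). Higher values mean greater viability under ES, i.e. loss of FDX1 function in cuproptosis.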

[1] abbreviates: with ABC1 FDX1 KO, elesclomol 5 nM, 14 days.
[2] abbreviates: with HEK293T FDX1 KO, elesclomol 40 nM, 11 days.
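Also: variant abundance is its share of total variant reads in each endpoint sample, from next-generation sequencing of the integrated ORF PCR-amplified out of genomic DNA.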

As for MAAAGGARQLRAASAVLGGPAGRWLHHAGSRAGSSGLLRNRGPGGSAEASRSLSVSARARSSSEDKITVHFINRDGETLTTKGKVGDSLLDVVVENNLDIDGFGACEGTLACSTCHLIFEDHIYEKLDAITDEENDMLDLAYGLTDRSRLGCQICLTKSMDNMTVRVPETVADARQSIDVGKTS, the “scaled log2 fold change” value was -0.0581 under setting [1] and 1.04 under setting [2].
Consider MAAAGGARRLRAASAVLGGPAGRWLHHAGSRAGSSGLLRNRGPGGSAEASRSLSVSARARSSSEDKITVHFINRDGETLTTKGKVGDSLLDVVVENNLDIDGFGACEGTLACSTCHLIFEDHIYEKLDAITDEENDMLDLAYGLTDRSRLGCQICLTKSMDNMTVRVPETVADARQSIDVGKTS, for which the “scaled log2 fold change” value is, setting by setting: under setting [1], 0.455; under setting [2], -0.0809.
As for MAAAGGARTLRAASAVLGGPAGRWLHHAGSRAGSSGLLRNRGPGGSAEASRSLSVSARARSSSEDKITVHFINRDGETLTTKGKVGDSLLDVVVENNLDIDGFGACEGTLACSTCHLIFEDHIYEKLDAITDEENDMLDLAYGLTDRSRLGCQICLTKSMDNMTVRVPETVADARQSIDVGKTS, under setting [1], the “scaled log2 fold change” value was 0.431.
MAAAGGARWLRAASAVLGGPAGRWLHHAGSRAGSSGLLRNRGPGGSAEASRSLSVSARARSSSEDKITVHFINRDGETLTTKGKVGDSLLDVVVENNLDIDGFGACEGTLACSTCHLIFEDHIYEKLDAITDEENDMLDLAYGLTDRSRLGCQICLTKSMDNMTVRVPETVADARQSIDVGKTS: the “scaled log2 fold change” value is, setting by setting: under setting [1], 0.434; under setting [2], 0.233.
Consider MAAAGGARSLRAASAVLGGPAGRWLHHAGSRAGSSGLLRNRGPGGSAEASRSLSVSARARSSSEDKITVHFINRDGETLTTKGKVGDSLLDVVVENNLDIDGFGACEGTLACSTCHLIFEDHIYEKLDAITDEENDMLDLAYGLTDRSRLGCQICLTKSMDNMTVRVPETVADARQSIDVGKTS, for which the “scaled log2 fold change” value by setting is: under setting [1], 0.156; under setting [2], -0.659.
For MAAAGGARVLRAASAVLGGPAGRWLHHAGSRAGSSGLLRNRGPGGSAEASRSLSVSARARSSSEDKITVHFINRDGETLTTKGKVGDSLLDVVVENNLDIDGFGACEGTLACSTCHLIFEDHIYEKLDAITDEENDMLDLAYGLTDRSRLGCQICLTKSMDNMTVRVPETVADARQSIDVGKTS, in that order: 0.286 and -0.433.
For MAAAGGARPLRAASAVLGGPAGRWLHHAGSRAGSSGLLRNRGPGGSAEASRSLSVSARARSSSEDKITVHFINRDGETLTTKGKVGDSLLDVVVENNLDIDGFGACEGTLACSTCHLIFEDHIYEKLDAITDEENDMLDLAYGLTDRSRLGCQICLTKSMDNMTVRVPETVADARQSIDVGKTS, in that order: 0.629 and 0.0788.
Consider MAAAGGARYLRAASAVLGGPAGRWLHHAGSRAGSSGLLRNRGPGGSAEASRSLSVSARARSSSEDKITVHFINRDGETLTTKGKVGDSLLDVVVENNLDIDGFGACEGTLACSTCHLIFEDHIYEKLDAITDEENDMLDLAYGLTDRSRLGCQICLTKSMDNMTVRVPETVADARQSIDVGKTS, for which the “scaled log2 fold change” value runs as follows: under setting [1], 0.485; under setting [2], -0.192.
With MAAAGGARNLRAASAVLGGPAGRWLHHAGSRAGSSGLLRNRGPGGSAEASRSLSVSARARSSSEDKITVHFINRDGETLTTKGKVGDSLLDVVVENNLDIDGFGACEGTLACSTCHLIFEDHIYEKLDAITDEENDMLDLAYGLTDRSRLGCQICLTKSMDNMTVRVPETVADARQSIDVGKTS, the “scaled log2 fold change” value reads like this: under setting [1], 0.353; under setting [2], -0.636.
Turning to MAAAGGARMLRAASAVLGGPAGRWLHHAGSRAGSSGLLRNRGPGGSAEASRSLSVSARARSSSEDKITVHFINRDGETLTTKGKVGDSLLDVVVENNLDIDGFGACEGTLACSTCHLIFEDHIYEKLDAITDEENDMLDLAYGLTDRSRLGCQICLTKSMDNMTVRVPETVADARQSIDVGKTS, the “scaled log2 fold change” value was determined as 0.105 under setting [1] and 0.772 under setting [2].
As for MAAAGGARKLRAASAVLGGPAGRWLHHAGSRAGSSGLLRNRGPGGSAEASRSLSVSARARSSSEDKITVHFINRDGETLTTKGKVGDSLLDVVVENNLDIDGFGACEGTLACSTCHLIFEDHIYEKLDAITDEENDMLDLAYGLTDRSRLGCQICLTKSMDNMTVRVPETVADARQSIDVGKTS, the “scaled log2 fold change” value under setting [1] was found to be 0.158.
In the case of MAAAGGARLIRAASAVLGGPAGRWLHHAGSRAGSSGLLRNRGPGGSAEASRSLSVSARARSSSEDKITVHFINRDGETLTTKGKVGDSLLDVVVENNLDIDGFGACEGTLACSTCHLIFEDHIYEKLDAITDEENDMLDLAYGLTDRSRLGCQICLTKSMDNMTVRVPETVADARQSIDVGKTS, the “scaled log2 fold change” value reads like this: under setting [1], -0.165; under setting [2], 0.0157.
For the variant MAAAGGARLCRAASAVLGGPAGRWLHHAGSRAGSSGLLRNRGPGGSAEASRSLSVSARARSSSEDKITVHFINRDGETLTTKGKVGDSLLDVVVENNLDIDGFGACEGTLACSTCHLIFEDHIYEKLDAITDEENDMLDLAYGLTDRSRLGCQICLTKSMDNMTVRVPETVADARQSIDVGKTS, the “scaled log2 fold change” value is -0.592 under setting [1] and 0.0724 under setting [2].
For MAAAGGARLDRAASAVLGGPAGRWLHHAGSRAGSSGLLRNRGPGGSAEASRSLSVSARARSSSEDKITVHFINRDGETLTTKGKVGDSLLDVVVENNLDIDGFGACEGTLACSTCHLIFEDHIYEKLDAITDEENDMLDLAYGLTDRSRLGCQICLTKSMDNMTVRVPETVADARQSIDVGKTS, in that order: 0.404 and 0.0467.
In the case of MAAAGGARLGRAASAVLGGPAGRWLHHAGSRAGSSGLLRNRGPGGSAEASRSLSVSARARSSSEDKITVHFINRDGETLTTKGKVGDSLLDVVVENNLDIDGFGACEGTLACSTCHLIFEDHIYEKLDAITDEENDMLDLAYGLTDRSRLGCQICLTKSMDNMTVRVPETVADARQSIDVGKTS, under setting [1], the “scaled log2 fold change” value is 0.705.
As for MAAAGGARLERAASAVLGGPAGRWLHHAGSRAGSSGLLRNRGPGGSAEASRSLSVSARARSSSEDKITVHFINRDGETLTTKGKVGDSLLDVVVENNLDIDGFGACEGTLACSTCHLIFEDHIYEKLDAITDEENDMLDLAYGLTDRSRLGCQICLTKSMDNMTVRVPETVADARQSIDVGKTS, the “scaled log2 fold change” value is 0.307 under setting [1] and -0.18 under setting [2].
MAAAGGARLFRAASAVLGGPAGRWLHHAGSRAGSSGLLRNRGPGGSAEASRSLSVSARARSSSEDKITVHFINRDGETLTTKGKVGDSLLDVVVENNLDIDGFGACEGTLACSTCHLIFEDHIYEKLDAITDEENDMLDLAYGLTDRSRLGCQICLTKSMDNMTVRVPETVADARQSIDVGKTS: the “scaled log2 fold change” value under setting [1] is -0.0904 and the “scaled log2 fold change” value under setting [2] is -0.0054.
On the same counts, the results for MAAAGGARLHRAASAVLGGPAGRWLHHAGSRAGSSGLLRNRGPGGSAEASRSLSVSARARSSSEDKITVHFINRDGETLTTKGKVGDSLLDVVVENNLDIDGFGACEGTLACSTCHLIFEDHIYEKLDAITDEENDMLDLAYGLTDRSRLGCQICLTKSMDNMTVRVPETVADARQSIDVGKTS are 0.222 and -0.209.

These data come from the supplement of paper PMC12855868.
